From the supplement of paper PMC9170038

These sequences were tested on K4 kissing-loop RNA reporter (assay: apparent KD of K4 kissing-loop reporter; higher = weaker reporter binding). Settings: Eterna round: R107; input ligand: theophylline 20 uM.
Description: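 RNA-MaP round R107: designed RNA switches with theophylline, tryptophan, arginine or FMN aptamers are transcribed on-chip within common flanks. They are titrated with a labelled K4 kissing-loop RNA reporter in RNA-MaP buffer (100 mM Tris pH 7.5, 80 mM KCl, 4 mM MgCl2), without ligand or with the indicated ligand. Median apparent KD per design.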
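Further: bound reporter read as fluorescence of individual clusters on recovered sequencing chips by microscopy, with normalized cluster intensities fitted with a binding model.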

Sequence	apparent KD of K4 kissing-loop reporter [nM]
AGACGCCAGUCGGCCGCCACUCACAGCAGUGAUGUUGCUGAAAAUCUAGAAGAGUGAUGUUCUUAGAGGACCGGGACUCCAGUCG [Same State Tryptophan B GF 6]	141
UGUCUGAUGGAAACAUCGGACUUUACUGAUACCAGUAUCGAUAGAUACCCUUGGCAGCAGAAUCAGUAAUAACGAGUGAUGUUCG [Ex Theophylline A K4 3]	317
UGAUACCAGACUGAUACCAGCUAGUGAUGUUAGCUGAUCUAAGGACCGUCAAAGACGGCUAGCCCUUGGCAGCAGUCUGGUAUCU [TheoBX 13 #SwitchBubble #StaticStem]	130
UGGACCUGACUCGAUAAGAGUCAAUGGGAUACCAGCCACGAAAGUGGCCCUUGGCAGCUCUACCAGUGAUGUUGGUCAAGGUCCU [#SwitchBubble 8 #StaticStem]	716
UGUGGAGGAUAUGAUACCAGCAGUGAGAGAGAGGAAGUAUAGUGAUGUUAUAUGAGAGAAUGCCCUUGGCAGCGUGUGUAGUAGG [SSTheophylB.J]	153
CGUUUAUAGCAGGAUACCAGUACCCAUUAUGUACGUUUAUAGUAGAGUGAUGUUCUAAAGUACCCUUGGCAGCUUCCUGUGACCC [ExTheophylB.Aa]	194
UUCUUGAUGGAAACAUCGAGGAUUACUGAUACCAGUAUCGAUAGAUACCCUUGGCAGCAGAAUCAGUGAUCACGAGUGAUGUUCG [Ex Theophylline A K4 10]	564
AACACCCGCUAUGAUACCAGUGAAGUGAUGUUUUACUCCGGGCGUAAGACAAAGGUCAGCCACCCUUGGCAGCAUAUCCGCGUAU [theeternabot_exclusion_KL_Theo_B_35]	490

Same assay, conditions: Eterna round: R107; input ligand: tryptophan 2.4 mM

Sequence	apparent KD of K4 kissing-loop reporter [nM]
ACGGAUUCGAAUACCGAAUGAAAUAGGGAUACCAGCACGUGAACGUGCCCUUGGCAGCCCAGCCCAGUGAUGUUGGGCCCAUGGC [Biso]	204
GGGAGUAGUGCGGCCGCCACUGUGAAAGUAGAAGAAUAUAGUGAUGUUAUAUAGGAUUAAAAGAAUAGGACCGGGCAUUAGAUUU [SSTRyptB.W]	209
AAUUCAAACUGAAGGAGCGAGCAAAUCGGAGUGAUGUUCCAAGCGAGUGAUGUUCGCAUAGCUCAGGUAGGUCGCAGUUUGGAUA [Same State Arginie B GF 13]	101
UGAUACCAGACGGCCGCCACUUCUGCAAGUCAAAGACUUGCUAAGGGAAUCGUCCAGUGAUGUUGGAGGACCGGGUCUGGUAUCU [FiskerMod 2 - Jieux - Exclusion - Tryptophan B]	1050
UGAUACCAGACGGCCGCCACUAGGACCGGGAGUGAUGUUCCCAAUUUAAAAUGCUCGGCCGCCACUAGGACCGGGUCUGGUAUCU [TrypBX 27 #DoubleAptamer #SwitchBubble]	109
UGACUGGACUGAAGGAGCGUUGAAGGAGCGUAGGCAGUGAUGUUGCCUACAGGUAGGUCGCAGCAGGUAGGUCGCAGUCUAGUCU [ArgBS 27 #DoubleAptamer #SwitchBubble]	107
AAAGAUCUUCUAGAAACUAGAAGAUCAAGAGAGGAUAUCCGAAUUCGGAGAAGGCUCACUAAGUGAUGUUUGGAGCCAAUGGCAA [AK2 SS FMN A]	932
GCAUCCAUGGCAGGAUAUAGGUUCAUGGAGUGAUGUUCCAUAACCCGAGUGAUGUUCGUUAUCCACCUAGAAGGGCCAUGGAUGC	180
UGUCAUUGGUCGGCCGCCACUAGGACCGGGUUUUACCUAGUGAUGUUAGUAUGAACGGCCGCCACUAGGACCGGGACCGAUGACU [KL-SSTryp-B25 #DoubleAptamer]	113
UGGAGGAGUGAUGUUCCCGAAACAUGAGAUACCAGCGUCACAGUCCGCCCUUGGCAGCUCGGUCCAAUUUGCCUCGCGGGUAAUG [theeternabot_sameState_KL_Theo_A_23]	182
UUGGUUGUCGUAGGAUAUGUAGGAUAUUCUAAAAUAUGAAGUGAUGUUUCUAUAAUAAGAAGAAGGACAGAAGGACGAUAACCAU [FmnBS 2 - Salish transfer #DoubleAptamer]	99.1
CCUAUCUCAUACGAUACCAGUCCGAGUGAUGUUCGAACAGGUUUUAGUUUGCCAUAUAAUGACCCUUGGCAGCGUAUGGGAUAGG [Ex Theophylline B K4 13]	137
CGCAGUGAUGUUGCGAGUAGCUACAGGGAAGGAGCGUGCUAGAGCACAGGUAGGUCGCCCAGUGGCAGUGAUGUUGCCAACGGGU [Exclusion ARginine A GF 18]	109
CCAUUCUUUUACGAUACCAGUUUUAUUUAGUUAUUCAUAACCCUUGCCGAGUGAUGUUCGGACCCUUGGCAGCGUUUGCGAGAGG [zaadvmullin]	272
AAACGCUGGAUGAAUAACAUCUAGCGAAUUCGAGGACCGGUACGGCCGCCACUCGAGCUAACUGCGAGUGAUGUUCGAUAAUAAA [Mat - Mod of OpenEnded 3 - D1]	80.9
GGACUCAAAUGUAGUGAUGUUACAAGCGAUACCAGUAUCUAACAUUACCCUUGGCAGCGCGCCCAGCUCAGCAAAUUAGAUAGCG [theeternabot_sameState_KL_Theo_A_43]	114

Sequence	apparent KD of K4 kissing-loop reporter [nM]
CGCAGUGAUGUUGCGAGUAACUACAGGGAAGGAGCGUGCUAAAGCACAGGUAGGUCGCCCAUGCAGUGAUGUUGUGUAAAAGGGU [Excluson Arginine A GF 13]	90.8
AACCGUGUGGCGGCCGCCACUAGUCUCCAGUGAUGUUGGAGAGACCACGUAAGUGGUCUCCGACAUAGGACCGGGCCAUAUGGAA [Same State - Tryptophan B (Freestyle 25)]	692
UGAUAGGACAGAAGGAGCGGAAUGCUGUCCAAAAGGACAGCAAAUAUAACAGGAGUGAUGUUCCAGGUAGGUCGCUGUCCUAUCU [ArgBX 21 #SwitchBubble #StaticStem]	187
AAUCAAUACAGAAGGAGCGUGACAAUUACUAUUGAAUUAGGUGCUAGUGAUGUUAGCAUUACACAGGUAGGUCGCUGUACAUUUA [JR_SSArginiB_Sub011]	78.3
CGGCUUAGUAGCGCGAGUUGACGUGCCAUCCGAGGACCGGUACGGCCGCCACUCGUGAUCUGUUAAAGUGAUGUUUUAAUGCCAU	639
AUUAAUUUCAGAGGAUAUGCUUAAUUGAUUUAUUAUUAUCUAUUAUGCAGUGAUGUUGCAUAUUUUGCAGAAGGCUGAUUUAUAA [JR_SSFMNB_Sub018]	125
GGAUAGGAUAGAGGAUAUGGUUUAUGCAGGAAUAACUUAUUGUGUAAAUCCAUAGGGAGUGAUGUUCCAGAAGGCUGUCCUAUCG [MatMod 14 - Jieux - Exclusion - FMN B]	183
AGACGCCAGUCGGCCGCCACUCACAGCAGUGAUGUUGCUGAAAAUCUAGAAGAGUGAUGUUCUUAGAGGACCGGGACUCCAGUCG [Same State Tryptophan B GF 6]	172
UGUCUGAUGGAAACAUCGGACUUUACUGAUACCAGUAUCGAUAGAUACCCUUGGCAGCAGAAUCAGUAAUAACGAGUGAUGUUCG [Ex Theophylline A K4 3]	310
UGAUACCAGACUGAUACCAGCUAGUGAUGUUAGCUGAUCUAAGGACCGUCAAAGACGGCUAGCCCUUGGCAGCAGUCUGGUAUCU [TheoBX 13 #SwitchBubble #StaticStem]	121
UGGACCUGACUCGAUAAGAGUCAAUGGGAUACCAGCCACGAAAGUGGCCCUUGGCAGCUCUACCAGUGAUGUUGGUCAAGGUCCU [#SwitchBubble 8 #StaticStem]	899
UGUGGAGGAUAUGAUACCAGCAGUGAGAGAGAGGAAGUAUAGUGAUGUUAUAUGAGAGAAUGCCCUUGGCAGCGUGUGUAGUAGG [SSTheophylB.J]	210
CGUUUAUAGCAGGAUACCAGUACCCAUUAUGUACGUUUAUAGUAGAGUGAUGUUCUAAAGUACCCUUGGCAGCUUCCUGUGACCC [ExTheophylB.Aa]	145
UUCUUGAUGGAAACAUCGAGGAUUACUGAUACCAGUAUCGAUAGAUACCCUUGGCAGCAGAAUCAGUGAUCACGAGUGAUGUUCG [Ex Theophylline A K4 10]	569
AACACCCGCUAUGAUACCAGUGAAGUGAUGUUUUACUCCGGGCGUAAGACAAAGGUCAGCCACCCUUGGCAGCAUAUCCGCGUAU [theeternabot_exclusion_KL_Theo_B_35]	440
